Data: IntAct's records for PubMed 23066109

B1: Tudor domain-containing protein 3 (Homo sapiens), Q9H7E2 (parent)
chain: MLRLQMTDGHISCTAVEFSYMSKISLNTPPGTKVKLSGIVDIKNGFLLLNDSNTTVLGGEVEHLIEKWELQRSLSKHNRSNIGTEGGPPPFVPFGQKCVSHVQVDSRELDRRKTLQVTMPVKPTNDNDEFEKQRTAAIAEVAKSKETKTFGGGGGGARSNLNMNAAGNRNREVLQKEKSTKSEGKHEGVYRELVDEKALKHITEMGFSKEASRQALMDNGNNLEAALNVLLTSNKQKPVMGPPLRGRGKGRGRIRSEDEEDLGNARPSAPSTLFDFLESKMGTLNVEEPKSQPQQLHQGQYRSSNTEQNGVKDNNHLRHPPRNDTRQPRNEKPPRFQRDSQNSKSVLEGSGLPRNRGSERPSTSSVSEVWAEDRIKCDRPYSRYDRTKDTSYPLGSQHSDGAFKKRDNSMQSRSGKGPSFAEAKENPLPQGSVDYNNQKRGKRESQTSIPDYFYDRKSQTINNEAFSGIKIEKHFNVNTDYQNPVRSNSFIGVPNGEVEMPLKGRRIGPIKPAGPVTAVPCDDKIFYNSGPKRRSGPIKPEKILESSIPMEYAKMWKPGDECFALYWEDNKFYRAEVEALHSSGMTAVVKFIDYGNYEEVLLSNIKPIQTEAWEEEGTYDQTLEFRRGGDGQPRRSTRPTQQFYQPPRARN

Variants of: B1
Conditions: with rpb1_human POLR2A

| Variant | effect of a mutation on the interaction |
| --- | --- |
| W567S | decreasing interaction |
| D569A | disrupting interaction |

Further lines, results first:

| effect of a mutation on the interaction | Variant |
| --- | --- |
| disrupting interaction | Y566F |
| increasing interaction | Y566W |

Variants of: B1
Conditions: with rpb1_human POLR2A
Remark: another data set of the same source

| effect of a mutation on the interaction | Variant |
| --- | --- |
| with no effect | Y566F |
